Reference: the supplement of paper PMC10724198
± gives the standard deviation of the averaged measurements.

Test system: Saccharomyces cerevisiae
Experiment: protein stability index of tFT-peptide fusion (C-terminal peptide) (PSI (0-1 scale)); higher = more stable (slower turnover)
Settings: temperature: 30 C
Method: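 MPS profiling in S. cerevisiae of the yeast C-terminome library: the last 12 aa of each annotated ORF are fused to the C-terminus of a sfGFP-mCherry timer, after a GGGS linker. Cells are FACS-sorted into 8 mCherry/sfGFP bins and deep-sequenced. PSI runs from 0 (unstable) to 1 (stable); wild type and das1Δ backgrounds, two technical replicates each.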

[1] = genetic background: das1 deletion

| Sequence | protein stability index [1] | protein stability index (genetic background: wild type) |
| --- | --- | --- |
| NDSEPESEYQQE [CUB1 C-terminal 12 aa] | 0.6922 ± 0.0057 | 0.713 ± 0.0081 |
| TSILEDVDGDDE [YOL050C C-terminal 12 aa] | 0.706 ± 0.041 | 0.669 ± 0.026 |
| SGKRGVGKTDFR [NOG1 C-terminal 12 aa] | 0.716 ± 0.00084 | 0.6901 ± 0.00098 |
| IHRVIKNATPVA [PEX28 C-terminal 12 aa] | 0.624 ± 0.027 | 0.649 ± 0.026 |
| TVNYLHRLLETD [ISN1 C-terminal 12 aa] | 0.73 ± 0.009 | 0.721 ± 0.039 |
| SQVLPESERRLD [ATG22 C-terminal 12 aa] | 0.675 ± 0.013 | 0.676 ± 0.03 |
| KIQWDIDPQLDG [SSY5 C-terminal 12 aa] | 0.743 ± 0.033 | 0.723 ± 0.082 |
| TVLKAAKKEGLN [MGR3 C-terminal 12 aa] | 0.672 ± 0.015 | 0.671 ± 0.044 |
| APEEEAYKPNQN [KRR1 C-terminal 12 aa] | 0.708 ± 0.0089 | 0.671 ± 0.012 |
| FQTITGEEKEKK [ECM16 C-terminal 12 aa] | 0.708 ± 0.027 | 0.728 ± 0.023 |
| HEEVKHTADTVD [CDC37 C-terminal 12 aa] | 0.71118 ± 0.00024 | 0.67 ± 0.018 |
| IFKSLIAKKVQS [BPL1 C-terminal 12 aa] | 0.69 ± 0.001 | 0.433 ± 0.033 |
| NGINNSSATYKI [ULA1 C-terminal 12 aa] | 0.7027 ± 0.0063 | 0.71 ± 0.038 |
| SLYTLNYNVKNP [ATG17 C-terminal 12 aa] | 0.7157 ± 0.0035 | 0.6907 ± 0.00092 |
| ISVSKKTLKSNW [HOP1 C-terminal 12 aa] | 0.698 ± 0.011 | 0.686 ± 0.022 |
| GGIRKISGSIKK [CDC14 C-terminal 12 aa] | 0.71 ± 0.01 | 0.667 ± 0.037 |
| TYRLLLRLHAQD [FAR7 C-terminal 12 aa] | 0.68 ± 0.035 | 0.641 ± 0.019 |
| DTCKSVLYCSTS [YMR193C-A C-terminal 12 aa] | 0.694 ± 0.022 | 0.65 ± 0.0067 |
| RLKSSVICSGTS [YLR399W-A C-terminal 12 aa] | 0.68237 ± 6.9e-05 | 0.664 ± 0.015 |
| ACFTRLPTPAIL [TRM8 C-terminal 12 aa] | 0.68 ± 0.0089 | 0.6593 ± 0.0055 |
| KVNGDIYRLPPS [MBA1 C-terminal 12 aa] | 0.6888 ± 0.001 | 0.677 ± 0.0092 |

| Sequence | protein stability index [1] | protein stability index (genetic background: wild type) |
| --- | --- | --- |
| AKGKGKSDEKIL [YIL086C C-terminal 12 aa] | 0.7026 ± 0.0025 | 0.73 ± 0.12 |
| DILGSLLAKKRK [MRE11 C-terminal 12 aa] | 0.681 ± 0.023 | 0.672 ± 0.022 |
| TASGEDSHLLKQ [BRL1 C-terminal 12 aa] | 0.669 ± 0.029 | 0.689 ± 0.026 |
| FKKSVDQMNAST [PSY2 C-terminal 12 aa] | 0.692 ± 0.026 | 0.691 ± 0.017 |
| TSHEAVAAKKLI [SHC1 C-terminal 12 aa] | 0.673 ± 0.018 | 0.249 ± 0.011 |
| SMPLYKDVQKDA [RBK1 C-terminal 12 aa] | 0.717 ± 0.027 | 0.665 ± 0.015 |
| VYEYIVNVNEYA [CPS1 C-terminal 12 aa] | 0.6949 ± 0.0031 | 0.682 ± 0.0094 |
| RAGSHSVGLLPM [UIP5 C-terminal 12 aa] | 0.6976 ± 0.0019 | 0.6835 ± 0.0029 |
| EHRNIEWEKKTA [POL4 C-terminal 12 aa] | 0.7 ± 0.014 | 0.694 ± 0.054 |
| LDDTPAPTATNL [NUD1 C-terminal 12 aa] | 0.6857 ± 0.0035 | 0.701 ± 0.034 |
| VGFAVMALMDEH [YKE4 C-terminal 12 aa] | 0.703 ± 0.052 | 0.7046 ± 0.0017 |
| RGFSFMPDDLDL [PKC1 C-terminal 12 aa] | 0.722 ± 0.013 | 0.72 ± 0.028 |
| TFCRLCSHIQYF [YAL059C-A C-terminal 12 aa] | 0.7214 ± 0.006 | 0.694 ± 0.022 |
| VAASKASKKSKI [NSA1 C-terminal 12 aa] | 0.683 ± 0.035 | 0.677 ± 0.085 |
| DDEIDSEEDENA [SDD3 C-terminal 12 aa] | 0.69 ± 0.035 | 0.653 ± 0.018 |
| ADARDKFVDLYN [ADD66 C-terminal 12 aa] | 0.696 ± 0.027 | 0.708 ± 0.1 |
| DQFQLITQGIYS [PIK1 C-terminal 12 aa] | 0.722 ± 0.034 | 0.717 ± 0.099 |
| YALKRNAFKLLK [CRD1 C-terminal 12 aa] | 0.682 ± 0.011 | 0.691 ± 0.02 |
| HKNHSVPRLIQV [YCL068C C-terminal 12 aa] | 0.6194 ± 0.0049 | 0.654 ± 0.048 |
| DGTTSKDSEKKK [COA4 C-terminal 12 aa] | 0.708 ± 0.011 | 0.648 ± 0.011 |
| ISICILDLASHL [YBL071C C-terminal 12 aa] | 0.6703 ± 0.0038 | 0.669 ± 0.018 |

| Sequence | protein stability index [1] | protein stability index (genetic background: wild type) |
| --- | --- | --- |
| APRLRLEDIFQQ [RET1 C-terminal 12 aa] | 0.752 ± 0.011 | 0.7 ± 0.052 |
| SAIENYRKAYGI [URA10 C-terminal 12 aa] | 0.664 ± 0.038 | 0.69935 ± 0.00068 |
| HISLKCIVYKEY [YER135C C-terminal 12 aa] | 0.638 ± 0.0081 | 0.665 ± 0.016 |
| EYIVNVNEYGHD [YOL153C C-terminal 12 aa] | 0.6799 ± 0.0043 | 0.678 ± 0.0079 |
| EINSDFIENFEE [MSH4 C-terminal 12 aa] | 0.701 ± 0.017 | 0.699 ± 0.046 |
| NDDDEDDDDFFD [SDD2 C-terminal 12 aa] | 0.723 ± 0.015 | 0.6947 ± 0.0056 |
| EVHALNRDHLVA [YHR138C C-terminal 12 aa] | 0.692 ± 0.0076 | 0.674 ± 0.023 |
| VKSSMGPAFRLY [RPL1A C-terminal 12 aa] | 0.6853 ± 0.0045 | 0.712 ± 0.046 |
| QIVGRYVVDTSK [ADH1 C-terminal 12 aa] | 0.6827 ± 0.0057 | 0.683 ± 0.015 |
| QSKNIEIFSQIK [YGR067C C-terminal 12 aa] | 0.71 ± 0.031 | 0.695 ± 0.018 |
| KDSAQSLDDLLM [SFM1 C-terminal 12 aa] | 0.7007 ± 0.0043 | 0.6969 ± 0.0046 |
| IRIVITINKVTL [IRC9 C-terminal 12 aa] | 0.348 ± 0.0076 | 0.36577 ± 0.00023 |
| NEERINSKIFKS [RCF2 C-terminal 12 aa] | 0.716 ± 0.043 | 0.69629 ± 0.00022 |
| FCIFNNVVFPML [RRT1 C-terminal 12 aa] | 0.717 ± 0.011 | 0.7002 ± 0.0035 |
| LAPLQFSGIVRS [YDR274C C-terminal 12 aa] | 0.6773 ± 0.0022 | 0.682 ± 0.045 |
| DTHTNEIIKKEI [HRQ1 C-terminal 12 aa] | 0.6984 ± 0.004 | 0.695 ± 0.032 |
| ERLIQQGYLQKI [PSF1 C-terminal 12 aa] | 0.698 ± 0.024 | 0.683 ± 0.035 |
| RRLKNKQRTRFQ [YNR021W C-terminal 12 aa] | 0.7264 ± 0.0013 | 0.698 ± 0.023 |
| LVAIDPRSEAYC [YMR324C C-terminal 12 aa] | 0.68838 ± 0.00058 | 0.671 ± 0.012 |
| DKEVVYFDEWTI [RPC34 C-terminal 12 aa] | 0.726 ± 0.062 | 0.729 ± 0.032 |
| LPQSTLQENQLS [SKN7 C-terminal 12 aa] | 0.706 ± 0.024 | 0.622 ± 0.028 |

| Sequence | protein stability index [1] | protein stability index (genetic background: wild type) |
| --- | --- | --- |
| KPGGSKKRKTKA [RFC1 C-terminal 12 aa] | 0.729 ± 0.011 | 0.747 ± 0.15 |
| IWKKVPETKRSG [VPS73 C-terminal 12 aa] | 0.707 ± 0.019 | 0.669 ± 0.022 |
| CLCLINLCCDVF [YDR034W-B C-terminal 12 aa] | 0.267 ± 0.0034 | 0.295 ± 0.0068 |
| EFMKTNTGSKKV [CCR4 C-terminal 12 aa] | 0.703 ± 0.027 | 0.677 ± 0.03 |
| HQFCEQKYVETI [RRT16 C-terminal 12 aa] | 0.7109 ± 0.0024 | 0.664 ± 0.0071 |
| LSQRAWATKKPI [YJL028W C-terminal 12 aa] | 0.696 ± 0.012 | 0.732 ± 0.077 |
| NSDRLSPMEIYN [SPO14 C-terminal 12 aa] | 0.7118 ± 0.007 | 0.6799 ± 0.0022 |
| GYAKTWSIASAN [CTT1 C-terminal 12 aa] | 0.714 ± 0.011 | 0.674 ± 0.028 |
| EFTDEWFKEHSS [STH1 C-terminal 12 aa] | 0.757 ± 0.0035 | 0.719 ± 0.0073 |
| LKDNLAKPKTRR [VBA2 C-terminal 12 aa] | 0.715 ± 0.0088 | 0.708 ± 0.031 |
| NTANRIIEELLK [UBC1 C-terminal 12 aa] | 0.68955 ± 0.00029 | 0.67 ± 0.032 |
| NENDFNFINWEG [FLO8 C-terminal 12 aa] | 0.741 ± 0.037 | 0.7071 ± 0.0051 |
| VDALQIQYNRRP [SCD5 C-terminal 12 aa] | 0.681 ± 0.013 | 0.692 ± 0.033 |
| WEKFIELEKNYK [MST1 C-terminal 12 aa] | 0.696 ± 0.0078 | 0.799 ± 0.04 |
| EEFINKLVKSMN [RPL7A C-terminal 12 aa] | 0.698 ± 0.029 | 0.705 ± 0.097 |
| ADRASVEIIDAN [PFA3 C-terminal 12 aa] | 0.705 ± 0.021 | 0.7046 ± 0.0057 |
| TVSDGGSIFECS [RAD28 C-terminal 12 aa] | 0.7127 ± 0.0051 | 0.708 ± 0.06 |
| SHEQKFENVQKE [STF2 C-terminal 12 aa] | 0.711 ± 0.017 | 0.705 ± 0.012 |
| YEKVVELWNKVV [MNT4 C-terminal 12 aa] | 0.701 ± 0.018 | 0.199 ± 0.0098 |
